T1: La-module (La+RRM) (human, UniProt Q9BRS8 81-298)
T1 sequence: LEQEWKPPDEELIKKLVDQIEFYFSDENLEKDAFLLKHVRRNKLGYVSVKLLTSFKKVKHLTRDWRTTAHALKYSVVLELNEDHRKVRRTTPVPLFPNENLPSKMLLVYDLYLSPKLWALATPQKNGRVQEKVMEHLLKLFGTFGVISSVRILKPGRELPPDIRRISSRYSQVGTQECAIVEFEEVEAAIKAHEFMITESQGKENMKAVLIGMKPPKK

T2: RRM domain (human, UniProt Q9BRS8 183-298)
T2 sequence: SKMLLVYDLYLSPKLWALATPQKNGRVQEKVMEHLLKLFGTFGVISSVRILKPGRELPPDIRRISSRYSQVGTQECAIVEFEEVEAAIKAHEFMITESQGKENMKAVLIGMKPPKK

T3: La-module R121A (human, UniProt Q9BRS8 81-298, R121A)
T3 sequence: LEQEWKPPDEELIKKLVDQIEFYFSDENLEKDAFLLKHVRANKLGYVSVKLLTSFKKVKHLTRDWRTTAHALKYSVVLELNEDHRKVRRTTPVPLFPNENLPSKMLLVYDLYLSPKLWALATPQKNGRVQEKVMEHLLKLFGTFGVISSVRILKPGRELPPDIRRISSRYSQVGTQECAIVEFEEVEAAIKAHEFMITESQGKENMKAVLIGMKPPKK

T4: La-module N122A (human, UniProt Q9BRS8 81-298, N122A)
T4 sequence: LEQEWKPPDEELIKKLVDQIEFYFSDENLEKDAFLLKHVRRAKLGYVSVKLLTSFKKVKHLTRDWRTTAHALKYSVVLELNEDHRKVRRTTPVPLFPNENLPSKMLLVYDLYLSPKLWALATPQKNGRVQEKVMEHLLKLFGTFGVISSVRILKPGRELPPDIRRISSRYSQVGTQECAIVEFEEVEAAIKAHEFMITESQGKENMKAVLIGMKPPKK

T5: La-module K123A (human, UniProt Q9BRS8 81-298, K123A)
T5 sequence: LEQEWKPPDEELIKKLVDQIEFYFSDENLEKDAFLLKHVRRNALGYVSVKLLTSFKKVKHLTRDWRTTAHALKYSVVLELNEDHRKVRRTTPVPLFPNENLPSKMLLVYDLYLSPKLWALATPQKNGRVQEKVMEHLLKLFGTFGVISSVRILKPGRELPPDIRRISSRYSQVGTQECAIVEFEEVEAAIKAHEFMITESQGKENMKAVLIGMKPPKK


How the values were obtained:
[1] = target: La-domain (human, UniProt Q9BRS8 81-182); experiment: EMSA
[2] = target: T1, La-module (La+RRM); experiment: EMSA
[3] = target: T2, RRM domain; experiment: EMSA
[4] = target: T1, La-module (La+RRM); experiment: fluorescence polarization
[5] = target: T3, La-module R121A; experiment: EMSA
[6] = target: T4, La-module N122A; experiment: EMSA
[7] = target: T5, La-module K123A; experiment: EMSA

| Binder | binding result [1] | binding result [2] | binding result [3] | binding result [4] | binding result [5] | binding result [6] | binding result [7] |
| --- | --- | --- | --- | --- | --- | --- | --- |
| CCACAAAGAGUCUACAUGUCUAGGGUCUAGACAUGUUCAGCUUUGUGG (structured_RNA) [α1(I) 5'SL] | binds | binds | – | – | – | – | – |
| CACAAGGAGUCUGCAUGUCUAAGUGCUAGACAUGCUCAGCUUUGUG (structured_RNA) [α2(I) 5'SL] | – | – | no binding | binds | binds | binds | binds |
